Results from article PMC6349918, “A five-residue motif for the design of domain swapping in proteins” (Nature Communications, 2019).
Positions count from the first letter of the chain named.

B1: L1MK-Ctd (MK-Ctd with QVVAG engineered into loop1) (domain or fragment)
chain: MVPSRFEDVRVVQVVAGWRVSVKIAETEEGEVVTVKAEFDECREIGEETGIPPREVKAMVEAAARVGGWVDLKEREIKVQEG
B2: L1MK-Ctd* (L1MK-Ctd with QVVAG mutated to QVNAG) (domain or fragment)
chain: B1 chain with V15N

Molecular target: the molecule itself
Assay: SEC; MK-Ctd and its loop variants; Superdex 75 10/300 GL; 20 mM Tris-HCl, 500 mM GdnHCl, pH 8; monomer to dimer

| Protein | stoichiometry N |
| --- | --- |
| B1 | 2 |
| B2 | 2 |
